Assay results published in the supplement of paper PMC10567573.

B1: FAM46D (parent)
chain: FQEAMTHLQHKLICTRKPEEIRGG
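Note: lentivirally expressed fusions sorted by FACS into six bins by GFP to DsRed ratio, PSI derived from sequencing read proportions per bin multiplied by bin number.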

Variants of: B1
Assay: protein stability index of a GFP-peptide fusion (GPS, HEK-293T) (PSI 1-6); higher = more stable
Conditions: c terminus: a fixed tail appended
In the case of FQEAMTHLQHKLICTRKPEEIVGG [R22V], the protein stability index is reported as 3.04.
In the case of FQEAMTHLQHKLICTRKPEEIQGG [R22Q], the protein stability index is reported as 2.94.
FQEAMTHLQHKLICTRKPEEIHGG [R22H] gave a protein stability index of 3.14.
In the case of FQEAMTHLQHKLICTRHPEEIRGG [K17H], the protein stability index is reported as 2.38.
In the case of FQEAMTHLQHKLICTRWPEEIRGG [K17W], the protein stability index is reported as 2.03.
Variant FQEAMTHLQHKLICTRYPEEIRGG [K17Y] has a protein stability index of 1.85.
Variant FQEAMTHLQHKLICTRDPEEIRGG [K17D] has a protein stability index of 3.46.
Work on FQEAMTHLQHKLICTRIPEEIRGG [K17I] yielded a protein stability index of 2.68.
FQEAMTHLQHKLICTRVPEEIRGG [K17V] gave a protein stability index of 2.64.
With FQEAMTHLQHKLICTRMPEEIRGG [K17M] the protein stability index was 2.87.
With FQEAMTHLQHKLICTRQPEEIRGG [K17Q] the protein stability index was 2.33.
Work on FQEAMTHLQHKLICTRGPEEIRGG [K17G] yielded a protein stability index of 2.77.
FQEAMTHLQHKLICTRCPEEIRGG [K17C] showed a protein stability index of 1.91.
For FQEAMTHLQHKLICTRKPEEIRGW [G24W], the protein stability index was 1.68.
FQEAMTHLQHKLICTRKPEEIRGM [G24M] showed a protein stability index of 1.85.
With FQEAMTHLQHKLICTRKPEEIRGS [G24S] the protein stability index was 2.9.
For FQEAMTHLQHKLICTRKPEEIRGN [G24N], the protein stability index was 2.51.
For FQEAMTHLQHKLICTRKPEEIRGF [G24F], the protein stability index was 2.3.
Variant FQEAMTHLQHKLICTRKPEEIRGC [G24C] has a protein stability index of 2.52.
Variant FQEAMTHLQHKLICTRKPEEIRGP [G24P] has a protein stability index of 2.64.
Work on FQEAMTHLQHKLICTRKPEEIRGK [G24K] yielded a protein stability index of 3.34.
With FQEAMTHLQHKLICTRKPEEIRGH [G24H] the protein stability index was 2.26.
For VQEAMTHLQHKLICTRKPEEIRGG [F1V], the protein stability index was 4.64.
In the case of HQEAMTHLQHKLICTRKPEEIRGG [F1H], the protein stability index is reported as 4.3.
Variant NQEAMTHLQHKLICTRKPEEIRGG [F1N] has a protein stability index of 4.29.
AQEAMTHLQHKLICTRKPEEIRGG [F1A] gave a protein stability index of 4.16.
In the case of DQEAMTHLQHKLICTRKPEEIRGG [F1D], the protein stability index is reported as 4.81.
Variant GQEAMTHLQHKLICTRKPEEIRGG [F1G] has a protein stability index of 4.4.
YQEAMTHLQHKLICTRKPEEIRGG [F1Y] gave a protein stability index of 3.2.
Work on SQEAMTHLQHKLICTRKPEEIRGG [F1S] yielded a protein stability index of 3.49.
RQEAMTHLQHKLICTRKPEEIRGG [F1R] gave a protein stability index of 3.82.
Variant FQEAMTHLQHKLICTRKPAEIRGG [E19A] has a protein stability index of 2.79.
For FQEAMTHLQHKLICTRKPIEIRGG [E19I], the protein stability index was 1.98.
FQEAMTHLQHKLICTRKPVEIRGG [E19V] showed a protein stability index of 2.01.
With FQEAMTHLQHKLICTRKPHEIRGG [E19H] the protein stability index was 2.3.
Work on FQEAMTHLQHKLICTRKPCEIRGG [E19C] yielded a protein stability index of 1.97.
For FQEAMTHLQHKLICTRKPDEIRGG [E19D], the protein stability index was 2.55.
FQEAMTHLQHKLICTRKPKEIRGG [E19K] gave a protein stability index of 2.67.
FQEAMTHLEHKLICTRKPEEIRGG [Q9E] showed a protein stability index of 3.36.
For FQEAMTHLHHKLICTRKPEEIRGG [Q9H], the protein stability index was 2.67.
For FQEAMTHLDHKLICTRKPEEIRGG [Q9D], the protein stability index was 2.89.
Variant FQEAMTHLRHKLICTRKPEEIRGG [Q9R] has a protein stability index of 2.7.
FSEAMTHLQHKLICTRKPEEIRGG [Q2S] showed a protein stability index of 2.74.
In the case of FGEAMTHLQHKLICTRKPEEIRGG [Q2G], the protein stability index is reported as 3.01.
FHEAMTHLQHKLICTRKPEEIRGG [Q2H] showed a protein stability index of 2.02.
Work on FMEAMTHLQHKLICTRKPEEIRGG [Q2M] yielded a protein stability index of 2.28.
FFEAMTHLQHKLICTRKPEEIRGG [Q2F] gave a protein stability index of 1.6.
FAEAMTHLQHKLICTRKPEEIRGG [Q2A] gave a protein stability index of 2.91.
Variant FKEAMTHLQHKLICTRKPEEIRGG [Q2K] has a protein stability index of 3.46.
For FQEAMTHKQHKLICTRKPEEIRGG [L8K], the protein stability index was 2.29.
FQEAMTHRQHKLICTRKPEEIRGG [L8R] showed a protein stability index of 3.31.
With FQEAMTHWQHKLICTRKPEEIRGG [L8W] the protein stability index was 1.89.
In the case of FQEAMTHMQHKLICTRKPEEIRGG [L8M], the protein stability index is reported as 3.24.
With FQEAMTHYQHKLICTRKPEEIRGG [L8Y] the protein stability index was 2.34.
FQEAMTHQQHKLICTRKPEEIRGG [L8Q] gave a protein stability index of 3.68.
With FQEAMTHGQHKLICTRKPEEIRGG [L8G] the protein stability index was 3.09.
FQEAMTHLQHKLHCTRKPEEIRGG [I13H] gave a protein stability index of 2.54.
In the case of FQEAMTHLQHKLVCTRKPEEIRGG [I13V], the protein stability index is reported as 2.76.
With FQEAMTHLQHKLCCTRKPEEIRGG [I13C] the protein stability index was 3.07.
Work on FQEAMTHLQHKLACTRKPEEIRGG [I13A] yielded a protein stability index of 2.76.
Variant FQEAMTHLQHKLKCTRKPEEIRGG [I13K] has a protein stability index of 3.67.
In the case of FQEAMTHLQHKLYCTRKPEEIRGG [I13Y], the protein stability index is reported as 3.58.
In the case of FQEAMTHLQHKLPCTRKPEEIRGG [I13P], the protein stability index is reported as 2.95.
For FQEAMTHLQHKLMCTRKPEEIRGG [I13M], the protein stability index was 2.61.
In the case of FQEAMTHLQHKLRCTRKPEEIRGG [I13R], the protein stability index is reported as 2.72.
FQEAMTHLQHKLISTRKPEEIRGG [C14S] showed a protein stability index of 2.87.
In the case of FQEAMTHLQHKLIKTRKPEEIRGG [C14K], the protein stability index is reported as 2.6.
With FQEAMTHLQHKLITTRKPEEIRGG [C14T] the protein stability index was 2.7.
In the case of FQEAMTHLQHKLIGTRKPEEIRGG [C14G], the protein stability index is reported as 2.63.
FQEAMTHLQHKLIYTRKPEEIRGG [C14Y] showed a protein stability index of 2.45.
Variant FQEAMTHLQHKLIDTRKPEEIRGG [C14D] has a protein stability index of 3.17.
Work on FQEAMTHLQLKLICTRKPEEIRGG [H10L] yielded a protein stability index of 2.24.
For FQEAMTHLQNKLICTRKPEEIRGG [H10N], the protein stability index was 2.93.
Work on FQEAMTHLQGKLICTRKPEEIRGG [H10G] yielded a protein stability index of 2.67.
Work on FQEAMTHLQEKLICTRKPEEIRGG [H10E] yielded a protein stability index of 3.79.
Work on FQEAMTHLQYKLICTRKPEEIRGG [H10Y] yielded a protein stability index of 2.11.
For FQEAMTHLQMKLICTRKPEEIRGG [H10M], the protein stability index was 1.44.
With FQEAMTDLQHKLICTRKPEEIRGG [H7D] the protein stability index was 3.54.
With FQEAMTQLQHKLICTRKPEEIRGG [H7Q] the protein stability index was 2.93.
For FQEAMTKLQHKLICTRKPEEIRGG [H7K], the protein stability index was 2.61.
In the case of FQEAMTLLQHKLICTRKPEEIRGG [H7L], the protein stability index is reported as 1.67.
In the case of FQEAMTPLQHKLICTRKPEEIRGG [H7P], the protein stability index is reported as 3.4.
With FQEAMTTLQHKLICTRKPEEIRGG [H7T] the protein stability index was 2.77.
For FQEAMTVLQHKLICTRKPEEIRGG [H7V], the protein stability index was 2.48.
In the case of FQEAMTRLQHKLICTRKPEEIRGG [H7R], the protein stability index is reported as 2.66.
Work on FQEAMTHLQHKLICTSKPEEIRGG [R16S] yielded a protein stability index of 2.75.
In the case of FQEAMTHLQHKLICTWKPEEIRGG [R16W], the protein stability index is reported as 1.67.
In the case of FQEAMTHLQHKLICTGKPEEIRGG [R16G], the protein stability index is reported as 2.6.
Variant FQEAMTHLQHKLICTFKPEEIRGG [R16F] has a protein stability index of 2.62.
For FQEAMTHLQHKLICTVKPEEIRGG [R16V], the protein stability index was 2.77.
In the case of FQEAMTHLQHKLICTYKPEEIRGG [R16Y], the protein stability index is reported as 3.21.
With FQEAMTHLQHKLICTMKPEEIRGG [R16M] the protein stability index was 2.21.
Variant FQEAMTHLQHKLICTLKPEEIRGG [R16L] has a protein stability index of 2.55.
Work on FQEAMTHLQHKCICTRKPEEIRGG [L12C] yielded a protein stability index of 2.84.
